Here are results for 13 molecules from patent US20230295275A1 (FLAGSHIP PIONEERING INNOVATIONS VI, published 2023).

The term Kd denotes a measure of binding affinity in units of concentration. In general, koff refers to the first-order rate constant of dissociation. Read a low koff as slow dissociation. In general, kon refers to a measure of how fast the partners come together. The low end stands for slow association, the high end for fast association.

Assay [1] addresses T1, SARS-CoV-2 receptor binding domain (RBD) (SARS-CoV-2, UniProt P0DTC2 319-527). The experiment in a line: BLI (Octet Red96e), IgG1 on AHC biosensors, RBD in solution. For orientation: In BLI a coated tip is dipped into the sample, and binding shifts an interference pattern.
In assay [2] the target is T1, SARS-CoV-2 receptor binding domain (RBD). The experiment in a line: BLI (Octet), IgG on anti-human Fc biosensors, RBD in solution.
Assay [3] shares this target.
Assay [4] deals with SARS-CoV-2-Spike (wildtype, on virus) (SARS-CoV-2, UniProt P0DTC2 14-1273). The experiment in a line: cell-based or functional assay.
Assay [5] has as its target T1, SARS-CoV-2 receptor binding domain (RBD). The experiment in a line: BLI (Octet Red96e), IgG on AHC biosensors, RBD in solution.
Assay [6] has the same target. The experiment in a line: DELFIA, RBD coated on plate, IgG1 in solution.

Residue numbers refer to the chain shown, from its start. Where two headings read alike, the source gives them in different places.

B1: AB-1 full-length IgG1 (antibody, V domains shown)
VH: QMQLVQSGTEVKKPGESLKISCKGSGYGFITVWIGWVRQMPGKGLEWMGIIYPGDSETRYSPSFQGQVTISADKSINTAYLQWSSLKASDTAIYYCAGGSGISTPMDVWGQGTTVTVSS
VL: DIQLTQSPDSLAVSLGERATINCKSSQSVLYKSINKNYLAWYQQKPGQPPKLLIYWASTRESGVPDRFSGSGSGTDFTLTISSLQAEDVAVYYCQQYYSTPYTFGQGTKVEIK
With B1, in assay [1], the Kd turned out to be 3.3 nM, the Req was 0.98 nm shift, the Response is 1.06 nm and the kobs is 0.023 s⁻¹. In assay [1], this molecule yielded a dissociation rate constant (koff) of 0.00074 s⁻¹ and a kon of 220000 M⁻¹ s⁻¹. The molecule also gave a Kd in assay [2] of 9.5 nM. Further, the affinity in assay [3], expressed as Kd, was 14.6 nM. Also, in assay [4], the “Neutralization (ng/mL), Authentic Virus IC50” value worked out at 14200 ng/mL; the “Neutralization (ng/mL), Authentic Virus IC80” value amounted to 25000 ng/mL; the “Neutralization (ng/mL), Pseudovirus IC50” value worked out at 142 ng/mL. In assay [5], the Kd was 9.5 nM, the koff was determined as 0.0091 s⁻¹ and the kon came out at 960000 M⁻¹ s⁻¹.

B2: AB-11 IgG1 (antibody, V domains shown)
VH: B1 VH with Q1E, M2V, T9A, Y27S, Q65E, N77S, I93M
VL: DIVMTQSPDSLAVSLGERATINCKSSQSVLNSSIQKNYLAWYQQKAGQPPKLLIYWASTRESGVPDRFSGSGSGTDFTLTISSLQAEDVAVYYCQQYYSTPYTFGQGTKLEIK
On to B2, for which the binding result in assay [6] was “binds”.

B3: AB-12 IgG1 (antibody, V domains shown)
VH: B1 VH with Q1E, M2V, T9A, Y27S, G35S, N77S, I93M
VL: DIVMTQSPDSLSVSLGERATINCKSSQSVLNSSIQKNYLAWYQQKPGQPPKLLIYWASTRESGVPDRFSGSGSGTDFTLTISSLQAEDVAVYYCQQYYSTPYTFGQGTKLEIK
For B3, the binding result in assay [6] is listed as “binds”.

B4: AB-2 full-length IgG1 (antibody, V domains shown)
VH: B1 VH with Y27S, F29T
VL: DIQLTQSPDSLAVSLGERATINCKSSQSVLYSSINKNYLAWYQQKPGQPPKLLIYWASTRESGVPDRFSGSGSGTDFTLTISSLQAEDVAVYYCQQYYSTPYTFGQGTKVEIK
As for B4, binding in assay [3] was characterised by a dissociation constant (Kd) of 84.9 nM. Further, in assay [4], the “Neutralization (ng/mL), Authentic Virus IC50” value was determined as 25000 ng/mL; the “Neutralization (ng/mL), Authentic Virus IC80” value is 25000 ng/mL; the “Neutralization (ng/mL), Pseudovirus IC50” value is 324 ng/mL.

B5: AB-13 IgG1 (antibody, V domains shown)
VH: B1 VH with Q1E, M2V, T9A, Y27S, I70L, N77S, I93M, Q111K
VL: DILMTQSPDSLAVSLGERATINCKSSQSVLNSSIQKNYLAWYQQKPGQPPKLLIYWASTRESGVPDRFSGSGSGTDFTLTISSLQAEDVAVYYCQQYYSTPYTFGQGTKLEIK
Take B5: in assay [6], the binding result is given as “binds”.

B6: AB-9 IgG1 (antibody, V domains shown)
VH: B1 VH with Q1E, M2V, T9A, K23Q, Y27S, N77S, I93M
VL: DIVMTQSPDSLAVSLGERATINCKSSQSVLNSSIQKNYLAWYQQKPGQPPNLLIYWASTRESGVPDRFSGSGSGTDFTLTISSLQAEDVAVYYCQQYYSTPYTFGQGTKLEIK
Regarding B6, the binding result in assay [6] is recorded as “binds”.

B7: AB-5 full-length IgG1 (antibody, V domains shown)
VH: B1 VH with Y27S, V32Y, S103Y
VL: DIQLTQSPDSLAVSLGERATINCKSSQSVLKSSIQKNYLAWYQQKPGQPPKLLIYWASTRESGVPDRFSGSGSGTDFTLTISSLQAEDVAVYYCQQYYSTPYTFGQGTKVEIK
In assay [1], B7 yielded a Kd of 0.3 nM, a Req of 1.8 nm shift, a Response of 1.84 nm and a kobs of 0.012 s⁻¹. In assay [1], this molecule showed a koff of 3.6e-05 s⁻¹ and a kon of 120000 M⁻¹ s⁻¹.

B8: AB-10 IgG1 (antibody, V domains shown)
VH: B1 VH with Q1E, M2V, T9A, E16G, Y27S, N77S, I93M
VL: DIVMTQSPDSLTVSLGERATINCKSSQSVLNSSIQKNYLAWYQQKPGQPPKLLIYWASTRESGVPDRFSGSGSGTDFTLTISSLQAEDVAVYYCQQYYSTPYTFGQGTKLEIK
For B8, in assay [6], the binding result is “binds”.

B9: AB-6 full-length IgG1 (antibody, V domains shown)
VH: B1 VH with Y27S, F29L, S103Y
VL: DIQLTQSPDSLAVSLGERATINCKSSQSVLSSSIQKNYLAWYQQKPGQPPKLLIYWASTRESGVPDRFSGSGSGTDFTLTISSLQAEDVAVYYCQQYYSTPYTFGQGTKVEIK
B9: in assay [1], the Kd was 0.96 nM, the Req turned out to be 0.48 nm shift, the Response was determined as 0.485 nm and the kobs was 0.031 s⁻¹. Also, in assay [1], the koff is 0.00029 s⁻¹ and the kon is 300000 M⁻¹ s⁻¹.

B10: AB-8 IgG1 (antibody, V domains shown)
VH: B1 VH with Q1E, M2V, T9A, Y27S, S61N, P62Q, Q65K, N77S, I93M, T114M
VL: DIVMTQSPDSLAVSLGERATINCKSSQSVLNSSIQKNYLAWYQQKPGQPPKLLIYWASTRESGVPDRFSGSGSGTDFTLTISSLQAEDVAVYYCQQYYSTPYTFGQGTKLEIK
As to B10, the binding result in assay [6] is “binds”.

B11: AB-7 full-length IgG1 (antibody, V domains shown)
VH: B1 VH with Y27S, V32Y, S103Y
VL: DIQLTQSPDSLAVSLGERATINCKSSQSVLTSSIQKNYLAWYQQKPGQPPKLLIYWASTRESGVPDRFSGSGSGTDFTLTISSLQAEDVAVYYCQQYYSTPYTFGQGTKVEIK
In assay [1], B11 yielded an equilibrium dissociation constant (Kd) of 1.5 nM, a Req of 0.55 nm shift, a Response of 0.591 nm and a kobs of 0.024 s⁻¹. In assay [1], this molecule came in with a koff of 0.00036 s⁻¹ and a kon of 230000 M⁻¹ s⁻¹.

B12: AB-3 full-length IgG1 (antibody, V domains shown)
VH: B1 VH with Y27S
VL: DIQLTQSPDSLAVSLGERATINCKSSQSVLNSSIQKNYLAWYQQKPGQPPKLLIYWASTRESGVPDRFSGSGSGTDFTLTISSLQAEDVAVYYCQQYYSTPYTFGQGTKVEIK
In assay [1], B12 came in with a Kd of 4.5 nM, a Req of 1.3 nm shift, a Response of 1.42 nm and a kobs of 0.022 s⁻¹. For the same molecule, in assay [1], the koff came out at 0.00096 s⁻¹ and the kon amounted to 210000 M⁻¹ s⁻¹. This molecule also yielded a Kd in assay [3] of 38.8 nM. In assay [4], the “Neutralization (ng/mL), Authentic Virus IC50” value was determined as 25000 ng/mL and the “Neutralization (ng/mL), Authentic Virus IC80” value is 25000 ng/mL.

B13: AB-4 full-length IgG1 (antibody, V domains shown)
VH: B1 VH with Y27S, V32Y, S103H
VL: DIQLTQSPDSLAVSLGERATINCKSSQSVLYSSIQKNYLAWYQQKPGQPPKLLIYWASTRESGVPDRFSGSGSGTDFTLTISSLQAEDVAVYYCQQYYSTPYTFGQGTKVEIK
As for B13, the Kd in assay [3] is 36.1 nM. Moreover, in assay [4], the “Neutralization (ng/mL), Pseudovirus IC50” value was determined as 86.5 ng/mL.
